Data from patent US8314210B2, “Compositions and methods for the generation of MHC class II compounds by peptide exchange” (priority 2002, dated 2012).
Peptide text beside a SMILES is read from it. * marks the point of attachment. Dnp = O=[N+]([O-])c1ccc(*)c([N+](=O)[O-])c1; Ahx = NCCCCCC(=O)O

What was measured:
Type in all cases: binding
DR4 (DRA, DRB1*0401) = target: T1, DR4 (DRA, DRB1*0401) (Homo sapiens, UniProt P01903+P01911, A100K/A169T/F76Y/I96L/K127E/L162R/M171V/N62H/P40V/Q125Y/R42H/S133A/S149N/S66Y/V115G/V209L/W38E); experiment: Competition assay of HCV peptides, biotinylated HA (306-318) on thrombin-cleaved DR4/CLIP; details: competitor 30 nM to 10 μM vs 30 nM labeled HA peptide
T1 construct: were attached to the 3′ end of the DRα and DRβ ectodomains; CLIP peptide […]; made in house

DR4 = target: T2, DR4 (Homo sapiens, UniProt P01903+P01911, A100K/A169T/F76Y/I96L/K127E/L162R/M171V/N62H/P40V/Q125Y/R42H/S133A/S149N/S66Y/V115G/V209L/W38E); experiment: Kinetics of CLIP dissociation and peptide association; details: DR4, pH 5.2
T2 construct: CLIP peptide […]; made in house

DRB1*0401 = target: T3, DRB1*0401 (Homo sapiens, UniProt P01903+P01911, A100K/A169T/F76Y/I96L/K127E/L162R/M171V/N62H/P40V/Q125Y/R42H/S133A/S149N/S66Y/V115G/V209L/W38E); details: 3.3 μM *DR/CLIP, 50 μM DNP-labeled peptide, pH 5.2, overnight 30° C.
T3 construct: were attached to the 3′ end of the DRα and DRβ ectodomains; CLIP peptide […]; made in house

HLA-DR4 (DRA, DRB1*0401) = target: T4, HLA-DR4 (DRA, DRB1*0401) (Homo sapiens, UniProt P01903+P01911, A100K/A169T/F76Y/I96L/K127E/L162R/M171V/N62H/P40V/Q125Y/R42H/S133A/S149N/S66Y/V115G/V209L/W38E); experiment: biochemical; details: Table 2, DRB1*0401, read-out: (μM) [head prints unit only
T4 construct: were attached to the 3′ end of the DRα and DRβ ectodomains; CLIP peptide […]; made in house

aa 1581-1600: HCV peptide aa 1581-1600 tested for DR4 binding, printed with SEQ ID NO:20
binding to DR4 (DR4 (DRA, DRB1*0401)): bound to DR4

CGGGPVSKMRMATPLLMQA [Alexa-488 labeled CLIP peptide]
time by which almost all of the bound CLIP peptide had dissociated (DR4): ≤ 30 min

CC[C@H](C)[C@H](NC(=O)[C@H](CO)NC(=O)[C@@H](NC(=O)[C@@H]1CCCN1C(=O)[C@H](CO)NC(=O)[C@H](Cc1ccc(O)cc1)NC(=O)[C@H](CCSC)NC(=O)[C@H](CCCNC(=N)N)NC(=O)[C@@H](NC(=O)[C@@H](NC(=O)[C@H](CCCCN)NC(=O)[C@H](CC(N)=O)NC(=O)[C@H](CC(C)C)NC(=O)CCCCCNc1ccc([N+](=O)[O-])cc1[N+](=O)[O-])[C@@H](C)CC)C(C)C)C(C)C)C(=O)O [p24 (138-150)/Val] ({Dnp-Ahx}-LNKIVRMYSPVSI-OH; C-terminus assumed)
Loading Efficiency (%) (DRB1*0401): 90%

aa 1241-1260: HCV peptide aa 1241-1260 tested for DR4 binding, printed with SEQ ID NO:19 (GYKVLVLNPSVAATL; listed as Homo sapiens)
binding to DR4 (DR4 (DRA, DRB1*0401)): bound to DR4

aa 1771-1790: HCV peptide aa 1771-1790 tested for DR4 binding, printed with SEQ ID NO:21 (SGIQYLAGLSTLPGNPAIASL; listed as Homo sapiens)
binding to DR4 (DR4 (DRA, DRB1*0401)): bound to DR4

CC[C@H](C)[C@H](NC(=O)[C@H](CC(N)=O)NC(=O)[C@H](CCCCN)NC(=O)[C@H](Cc1ccccc1)NC(=O)[C@H](Cc1ccccc1)NC(=O)[C@H](Cc1c[nH]cn1)NC(=O)[C@@H](NC(=O)[C@@H](NC(=O)CCCCCNc1ccc([N+](=O)[O-])cc1[N+](=O)[O-])C(C)C)C(C)C)C(=O)N[C@H](C(=O)N[C@H](C(=O)N1CCC[C@H]1C(=O)N[C@@H](CCCNC(=N)N)C(=O)N[C@H](C(=O)N1CCC[C@H]1C(=O)N1CCC[C@H]1C(=O)O)[C@@H](C)O)[C@@H](C)O)C(C)C [MBP(88-102)] ({Dnp-Ahx}-VVHFFKNIVTPRTPP-OH)
IC50 (HLA-DR4 (DRA, DRB1*0401)): 0.3 µM

CC[C@H](C)[C@H](NC(=O)[C@H](CCC(N)=O)NC(=O)[C@H](CCC(=O)O)NC(=O)CCCCCNc1ccc([N+](=O)[O-])cc1[N+](=O)[O-])C(=O)NCC(=O)N[C@@H](Cc1c[nH]c2ccccc12)C(=O)N[C@@H](CCSC)C(=O)N[C@H](C(=O)N[C@@H](CC(N)=O)C(=O)N[C@@H](CC(N)=O)C(=O)N1CCC[C@H]1C(=O)N1CCC[C@H]1C(=O)N[C@H](C(=O)N1CCC[C@H]1C(=O)N[C@H](C(=O)NCC(=O)O)C(C)C)[C@@H](C)CC)[C@@H](C)O [p24 (113-127)] ({Dnp-Ahx}-EQIGWMTNNPPIPVG-OH; C-terminus assumed)
Loading Efficiency (%) (DRB1*0401): 79%
